Reference: paper PMC6265900

Experiments:
factor XIIa = assay: enzyme inhibition with chromogenic substrate (Dixon plot); enzyme (FXIIa 10 nM, plasma kallikrein 80 nM, trypsin 800 nM, elastase 400 nM) incubated with 0.5, 1 and 2 uM native poecistasin in 60 uL of 50 mM Tris buffer pH 7.4 for 5 min, then 0.2 mM chromogenic substrate; absorbance at 405 nm for 10 min; Ki from Dixon plot
plasma kallikrein = assay: as above

native poecistasin (natural protein) was tested, and the Ki (factor XIIa) was 9.31 nM and the Ki (plasma kallikrein) was 52 nM.
